Test results taken from publication PMC11963670.

Key:
[1] = molecular target: RHDV GI.1b P domain of VP60, MBP fusion (rabbit hemorrhagic disease virus GI.1b (isolate RHDV-Ast89)); assay: native gel or EMSA; nondenaturing PAGE of the MBP-P domain fusions, western blot with an anti-His tag monoclonal antibody; monomer band (calculated 85 kDa) and a slower band of the dimer
[2] = molecular target: RHDV GI.2 P domain loop-swap mutant L1´ (loop 1 of GI.1b), His-tagged MBP fusion (rabbit hemorrhagic disease virus GI.2 (isolate N-11)); assay: as above
[3] = molecular target: RHDV GI.2 P domain loop-swap mutant L1´L4´ (loops 1 and 4 of GI.1b), His-tagged MBP fusion (rabbit hemorrhagic disease virus GI.2 (isolate N-11)); assay: as above
[4] = molecular target: RHDV GI.2 P domain loop-swap mutant L1´L4´L5´ (loops 1, 4 and 5 of GI.1b), His-tagged MBP fusion (rabbit hemorrhagic disease virus GI.2 (isolate N-11)); assay: as above
[5] = molecular target: RHDV GI.2 P domain loop-swap mutant L2´ (loop 2 of GI.1b), His-tagged MBP fusion (rabbit hemorrhagic disease virus GI.2 (isolate N-11)); assay: as above
[6] = molecular target: RHDV GI.2 P domain loop-swap mutant L3´ (loop 3 of GI.1b), His-tagged MBP fusion (rabbit hemorrhagic disease virus GI.2 (isolate N-11)); assay: as above
[7] = molecular target: RHDV GI.2 P domain loop-swap mutant L4´ (loop 4 of GI.1b), His-tagged MBP fusion (rabbit hemorrhagic disease virus GI.2 (isolate N-11)); assay: as above
[8] = molecular target: RHDV GI.2 P domain loop-swap mutant L4´L5´ (loops 4 and 5 of GI.1b), His-tagged MBP fusion (rabbit hemorrhagic disease virus GI.2 (isolate N-11)); assay: as above
[9] = molecular target: RHDV GI.2 P domain loop-swap mutant L5´ (loop 5 of GI.1b), His-tagged MBP fusion (rabbit hemorrhagic disease virus GI.2 (isolate N-11)); assay: as above
[10] = molecular target: RHDV GI.2 P domain mutant N387A, MBP fusion (rabbit hemorrhagic disease virus GI.2 (isolate N-11)); assay: native gel or EMSA; PAGE under denaturing or native conditions of the MBP-P domain point mutants; monomer and homodimer bands; BSA as negative control
[11] = molecular target: RHDV GI.2 P domain mutant N387D, MBP fusion (rabbit hemorrhagic disease virus GI.2 (isolate N-11)); assay: as above
[12] = molecular target: RHDV GI.2 wild-type P domain of VP60 (isolate N-11), His-tagged MBP fusion (rabbit hemorrhagic disease virus GI.2 (isolate N-11)); assay: native gel or EMSA; nondenaturing PAGE of the MBP-P domain fusions, western blot with an anti-His tag monoclonal antibody; monomer band (calculated 85 kDa) and a slower band of the dimer

RHDV GI.1b P domain of VP60, MBP fusion (domain or fragment)
stoichiometry N [1]: 2

RHDV GI.2 P domain loop-swap mutant L1´ (loop 1 of GI.1b), His-tagged MBP fusion (domain or fragment)
stoichiometry N [2]: 2

RHDV GI.2 P domain loop-swap mutant L1´L4´ (loops 1 and 4 of GI.1b), His-tagged MBP fusion (domain or fragment)
stoichiometry N [3]: 2

RHDV GI.2 P domain loop-swap mutant L1´L4´L5´ (loops 1, 4 and 5 of GI.1b), His-tagged MBP fusion (domain or fragment)
stoichiometry N [4]: 2

RHDV GI.2 P domain loop-swap mutant L2´ (loop 2 of GI.1b), His-tagged MBP fusion (domain or fragment)
stoichiometry N [5]: 2

RHDV GI.2 P domain loop-swap mutant L3´ (loop 3 of GI.1b), His-tagged MBP fusion (domain or fragment)
stoichiometry N [6]: 2

RHDV GI.2 P domain loop-swap mutant L4´ (loop 4 of GI.1b), His-tagged MBP fusion (domain or fragment)
stoichiometry N [7]: 2

RHDV GI.2 P domain loop-swap mutant L4´L5´ (loops 4 and 5 of GI.1b), His-tagged MBP fusion (domain or fragment)
stoichiometry N [8]: 2

RHDV GI.2 P domain loop-swap mutant L5´ (loop 5 of GI.1b), His-tagged MBP fusion (domain or fragment)
stoichiometry N [9]: 2

RHDV GI.2 P domain mutant N387A, MBP fusion (domain or fragment)
stoichiometry N [10]: 2

RHDV GI.2 P domain mutant N387D, MBP fusion (domain or fragment)
stoichiometry N [11]: 2

RHDV GI.2 wild-type P domain of VP60 (isolate N-11), His-tagged MBP fusion (domain or fragment)
stoichiometry N [12]: 2
